Data on three molecules can be found in PMC11975290, “Two redox-responsive LysR-type transcription factors control the oxidative stress response of Agrobacterium tumefaciens” (Nucleic Acids Research, 2025).

What is called stoichiometry N is the number of molecules, sites or subunits per partner or assembly.

Data set [1] has as its target T1, His-ArgP (Escherichia coli (ASKA collection)) (UniProt P0A8S1).
T1 sequence: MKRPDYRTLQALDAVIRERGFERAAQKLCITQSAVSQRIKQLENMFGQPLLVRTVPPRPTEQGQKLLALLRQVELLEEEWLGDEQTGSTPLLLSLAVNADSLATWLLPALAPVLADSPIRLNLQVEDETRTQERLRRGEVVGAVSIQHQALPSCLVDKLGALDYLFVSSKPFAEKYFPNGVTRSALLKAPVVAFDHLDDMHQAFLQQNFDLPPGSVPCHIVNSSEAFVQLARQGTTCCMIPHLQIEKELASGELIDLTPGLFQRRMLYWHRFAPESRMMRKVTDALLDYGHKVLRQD
The data set is described as follows: EMSA. As to conditions: Radioactive EMSA: 20 min at 30 C, 6% polyacrylamide gel, buffer by reference (Müller et al.); ArgP agarose EMSA: 10 mM Tris-HCl pH 8.5, 10 mM MgCl2, 100 mM …. For orientation: A gel shift assay detects complexes by their altered migration in electrophoresis.

For data set [2], the target named is T2, LsrB-His (Agrobacterium tumefaciens) (UniProt A9CI74).
T2 sequence: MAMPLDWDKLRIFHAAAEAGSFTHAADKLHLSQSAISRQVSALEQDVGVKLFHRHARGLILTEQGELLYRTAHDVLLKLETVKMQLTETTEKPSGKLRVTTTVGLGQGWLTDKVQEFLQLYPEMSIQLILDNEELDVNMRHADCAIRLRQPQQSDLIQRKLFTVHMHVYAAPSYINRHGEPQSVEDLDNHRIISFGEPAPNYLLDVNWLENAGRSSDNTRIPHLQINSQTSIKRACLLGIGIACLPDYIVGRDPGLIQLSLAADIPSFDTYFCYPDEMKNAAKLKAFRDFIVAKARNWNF
The data set is described as follows: EMSA. As to conditions: Radioactive EMSA: 20 min at 30 C, 6% polyacrylamide gel, buffer by reference (Müller et al.); ArgP agarose EMSA: 10 mM Tris-HCl pH 8.5, 10 mM MgCl2, 100 mM ….

Data set [3] deals with the molecule itself. As to the kind of experiment: cryo-EM structure; single-particle cryo-EM of purified LsrB (1.2 mg/ml), without DNA; DNA-binding domain excluded from the analysis; AlphaFold 3 model of the SBD dimer rigid-body fitted into the 3.9 Å map.

“CGCTTCTGTGGTTTTAGTTTCGGAAACCATACAAAAATGCTATCCATCTTAAAAATGAGGCGCGATTGTAGCAGACGATTGGCAATCCTTCCGGCAGAAATACACGGTTATAAGACACCTTCATGATCGCCCAGGGATTATAAGTAAAGCAGCCAATCTCTTTTCTGGCGAATGCATGCTGAAGGCGCTGCGTCACGAAATCGACACAGCACCAGCATGTTCTTGTACAGCAACTTAACGCGGCACATTTGCGGGATCGCAATAGTCCAGAAAGCG (double strand) [lysP promoter 276 bp]”: the binding result in data set [1] is recorded as “binds”.
For the molecule “GCGGCTAAACGTCTTTTCGCTGGGGATGGCGGAGAAGCCGACAATCCACCTTAGGTTTTGGAGAACACGAAAGATGAAATTTAATCGCAGACATATCGCACTGGCCGCTTTGGTCTCGACGGGCCTGGTCACGCAGGCTTCTGCCGCTGATGATG (double strand) [ampC promoter 155 bp]”, the binding entry in data set [2] is “no binding”.

B1: LsrB (LysR-type symbiosis regulator B) of Agrobacterium tumefaciens (natural protein)
chain: T2 sequence
notes: LsrB, LysR-type transcriptional regulator of Agrobacterium tumefaciens (atu2186); also called Atu2186; LsrB^His; source: E. coli BL21 (DE3), purified (His-tagged or Strep-tagged; Strep-Tactin resin for the Strep-tagged form)
Turning to B1, the “stoichiometry N” value in data set [3] amounted to 2.
